The text below walks through data of article PMC7261172 (2020).

In general, Kd refers to the equilibrium constant for the complex coming apart. Read a high Kd as lower affinity.

The test concerns the target E. coli β-clamp labelled with RED-maleimide dye (MST) (E. coli, UniProt P0A988 1-366, RED-maleimide fluorescent dye (RED-Maleimide Labelling Kit, NanoTemper); site not stated). The test is described as follows: MST.

Ac-MDRWLVKWKKKRKIRRRRRRRRRRR-NH2 (also: TFA salt) [Cell penetrating APIM-peptide RWLVK (Ac-MD-RWLVK-WKKKRKI-RRRRRRRRRRR)] yielded a Kd of 35 µM.
The same measure for Ac-MDRFSLKWKKKRKIRRRRRRRRRRR-NH2 (also: TFA salt) [Cell penetrating APIM-peptide RFSLK (Ac-MD-RFSLK-WKKKRKI-RRRRRRRRRRR)]: 19 µM.
